Laboratory results from patent US20220281990A1 (MERRIMACK PHARMACEUTICALS, published 2022).
Where a chain is given by its changes, count along the chain named.

T1: recombinant human TNFR2-hFc protein (human, UniProt P20333 23-257)
T1 construct: also called hTNFR2-Fc; human TNFR2-Fc; not shown: human Fc
T1 sequence: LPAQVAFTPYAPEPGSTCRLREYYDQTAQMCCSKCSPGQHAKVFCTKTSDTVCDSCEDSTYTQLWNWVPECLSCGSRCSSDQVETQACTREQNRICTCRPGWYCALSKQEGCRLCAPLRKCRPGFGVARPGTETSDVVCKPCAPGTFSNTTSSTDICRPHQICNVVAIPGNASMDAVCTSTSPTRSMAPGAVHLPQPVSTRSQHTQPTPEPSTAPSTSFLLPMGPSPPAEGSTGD

T2: Human TNFR2 expressed on cells (CHO-hTNFR2 cells) (human, UniProt P20333 23-461)
T2 construct: also called CHO cells overexpressing human TNFR2; human TNFR2 reporter cells (HEK293)
T2 sequence: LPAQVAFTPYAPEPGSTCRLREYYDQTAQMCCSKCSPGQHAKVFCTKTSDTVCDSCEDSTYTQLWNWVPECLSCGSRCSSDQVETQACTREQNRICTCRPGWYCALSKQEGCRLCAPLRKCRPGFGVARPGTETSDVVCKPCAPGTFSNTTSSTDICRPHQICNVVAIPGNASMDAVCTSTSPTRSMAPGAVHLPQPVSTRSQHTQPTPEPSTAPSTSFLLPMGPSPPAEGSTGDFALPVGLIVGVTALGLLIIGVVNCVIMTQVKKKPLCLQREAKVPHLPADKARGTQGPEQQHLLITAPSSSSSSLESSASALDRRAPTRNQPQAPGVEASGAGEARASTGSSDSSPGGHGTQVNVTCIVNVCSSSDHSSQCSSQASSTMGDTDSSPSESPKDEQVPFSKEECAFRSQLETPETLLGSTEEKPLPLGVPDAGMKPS

T3: recombinant human TNFR2-His (human, UniProt P20333 23-257)
T3 construct: also called hTNFR2-His; TNFR2-His protein; not shown: His tag
T3 sequence: T1 sequence

B1: UC1.1 (S4-2 1B5-1D9) scFv (scFv)
scFv: QVQLLESGGGLVQPGGSLRLSCAASGFSFTSYAMTWVRQAPGKGLEWVSGISGGGAATFYADSVKGRFTISRDNSKNTLYLQMNSLRAEDTAVYYCARQSQYVGGFDYWGQGTLVTVSSASSGGSTSGSGKPGSGEGSSGSARQSVLTQPPSVSGAPGQRVTISCTGSSSNIGAGYGVHWYQQLPGTAPKLLIHGNTNRPSGVPDRFSGFKSGTSASLAITGLQAEDEADYYCQSYDSSLSGWVFGGGTKLTVLG
B2: UC2.3 (S4-2 1D10-1G9) scFv (scFv)
scFv: QVQLLESGGGLVQPGGSLRLSCAASGFTFSTYAMSWIRQAPGKGLEWVSIISDGGDATVYADSVKGRFTISRDNSKNTLYLQMNSLRAEDTAVYYCARDGTSAAAFDSWGQGTLVTVSSASSGGSTSGSGKPGSGEGSSGSARDIQMTQSPSSLSASVGDRVTITCQASQDITNFLNWYQQKPGKAPKLLIYDASTLQTGVPSRFSGSGSGTDFTFTISSLQPEDIATYYCQQSDSYPITFGQGTKVEIKR
B3: UC2.3-IgG1 (antibody, V domains shown)
VH: QVQLLESGGGLVQPGGSLRLSCAASGFTFSTYAMSWIRQAPGKGLEWVSIISDGGDATVYADSVKGRFTISRDNSKNTLYLQMNSLRAEDTAVYYCARDGTSAAAFDSWGQGTLVTVSS
VL: DIQMTQSPSSLSASVGDRVTITCQASQDITNFLNWYQQKPGKAPKLLIYDASTLQTGVPSRFSGSGSGTDFTFTISSLQPEDIATYYCQQSDSYPITFGQGTKVEIKR
notes: Full-length human IgG1; also called anti-human TNFR2 IgG UC2.3
B4: UC2-IgG1 (antibody, V domains shown)
VH: B3 VH with I37V, V59F
VL: B3 VL
notes: Full-length human IgG1; also called anti-human TNFR2 IgG UC2
B5: UC2.3.3-IgG1 (antibody, V domains shown)
VH: B3 VH with S75N, K76R
VL: B3 VL
notes: Full-length human IgG1; also called anti-human TNFR2 IgG UC2.3.3
B6: UC2.3.8-IgG1 (antibody, V domains shown)
VH: B3 VH with S75N, K76R
VL: B3 VL with T53R, L54R, Q55R, T56A
notes: Full-length human IgG1; UC2.3.3 heavy chain combined with UC2.3.7 light chain; also called anti-human TNFR2 IgG UC2.3.8

Tests used:
[1] = target: T1, recombinant human TNFR2-hFc protein; experiment: flow cytometry; hTNFR2-Fc binding to scFv displayed on yeast (FIG. 4)
[2] = target: T1, recombinant human TNFR2-hFc protein; experiment: flow cytometry; hTNFR2-Fc binding to scFv displayed on yeast; one site binding fit (FIG. 6A)
[3] = target: T2, Human TNFR2 expressed on cells …; experiment: flow cytometry; soluble scFv inhibiting TNF (1 nM) binding to CHO-hTNFR2 cells (FIGS. 5A-5B)
[4] = target: T1, recombinant human TNFR2-hFc protein; experiment: flow cytometry; hTNFR2-Fc binding to scFv displayed on yeast; one site binding fit (FIG. 4)
[5] = target: T2, Human TNFR2 expressed on cells …; experiment: flow cytometry; soluble scFv inhibiting TNF (1 nM) binding to CHO-hTNFR2 cells (FIG. 7)
[6] = target: T3, recombinant human TNFR2-His; experiment: flow cytometry; hTNFR2-His binding to scFv displayed on yeast (FIG. 8)
[7] = target: T1, recombinant human TNFR2-hFc protein; experiment: flow cytometry; hTNFR2-Fc binding to scFv displayed on yeast; one site binding fit (FIG. 6B); FIG. 6B
[8] = target: T2, Human TNFR2 expressed on cells …; experiment: flow cytometry; IgG inhibiting TNF (1 nM) binding to CHO-hTNFR2 cells (FIG. 12)
[9] = target: T2, Human TNFR2 expressed on cells …; experiment: flow cytometry; IgG binding to CHO-hTNFR2 cells; four parameter fit (FIG. 10)
[10] = target: T2, Human TNFR2 expressed on cells …; experiment: flow cytometry; IgG inhibiting TNF (1 nM) binding to CHO-hTNFR2 cells (FIG. 13A); FIG. 13A
[11] = target: T2, Human TNFR2 expressed on cells …; experiment: flow cytometry; IgG inhibiting TNF (1 nM) binding to CHO-hTNFR2 cells (FIG. 13B); FIG. 13B
[12] = target: T3, recombinant human TNFR2-His; experiment: biolayer interferometry (BLI); IgG1 and TNFR2-His protein (FIG. 11)

Binder	fold higher affinity (vs parental scFv) [1] [fold]	IC50 [3] [nM]	Kd [4] [nM]	EC50 [9] [nM]	IC50 [10] [nM]	IC50 [11] [nM]	Kd [12] [nM]	also measured
B1	~5	10.7	2.59	–	–	–	–	Kd [2]: 2.87 nM
B2	~5	6.59	8.88	–	–	–	–	IC50 [5]: 4.85 nM; EC50 [6]: 33.9 nM; Kd [7]: 8.16 nM
B3	–	–	–	3.4	48	–	–	IC50 [8]: 12.4 nM
B4	–	–	–	97.9	–	–	–	–
B5	–	–	–	–	0.89	0.68	0.573	–
B6	–	–	–	–	–	0.088	0.344	–
